The source of these data is US10428140B2, “Anti-EphA4 antibody” (EISAI R&D MANAGEMENT CO., LTD., priority 2015, dated 2019).

Holding throughout (format): binding
The target in test [1] is T1, human EphA4 (Homo sapiens, UniProt P54764).
T1 construct: made in house; not restated for the human SEAP-His protein
Kind of test: Affinity of humanized antibodies by SPR (Biacore T200). As to conditions: human EphA4 extracellular region-SEAP-His; for ka / kd: 1:1 binding model; for Kd: KD=kd/ka. Here is the method: The binding affinity of each anti-EphA4 monoclonal humanized antibody obtained in Example 16 for human EphA4 was determined by surface plasmon resonance (SPR) using Biacore T200 (GE Healthcare). First, for the assay of antibody A, a rat anti-mouse IgG1 antibody produced with a conventional method by immunizing rat with mouse IgG1 antibody was immobilized on sensor chip CM5. The immobilization of the rat anti-mouse IgG1 antibody on sensor chip CM5 was performed by the amine coupling method using N-hydroxysuccinimide (NHS) and N-ethyl-N′-(3-dimethylaminopropyl)carbodiimide hydrochloride (EDC). Ethanolamine was used in blocking (the sensor chip and the reagents for immobilization were all manufactured by GE Healthcare). The antibody was diluted with a buffer solution for immobilization (10 mM sodium acetate, pH 4.5) and immobilized on the sensor chip according to the protocol attached to Biacore T200. For the assay of each humanized monoclonal antibody, a protein A chip (GE Healthcare, 29-1383-03) was used. Antibody A or the humanized monoclonal antibody was diluted with a running buffer solution HBS-EP (GE Healthcare), injected onto only flow cell 2 for 120 seconds, and captured (captured amount: approximately 30 to 60 RU). Subsequently, human EphA4 extracellular region-SEAP-His protein serially diluted in the range of 50, 16.7, 5.6, 1.9, and 0.6 nM using HBS-EP was sequentially added from the lower toward higher concentration sides without regeneration operation. Binding reaction curves were sequentially observed at the time of the addition (association phase, for 120 sec) and after the completion of the addition (dissociation phase, for 900 sec). After the completion of each observation, the sensor chip was regenerated by the addition of 3 M MgCl2 (for 60 sec) or 10 mM Glycine-HCl pH 1.5 (for 30 sec). The obtained binding reaction curves were subjected to fitting analysis with 1:1 binding models using software BIA evaluation attached to the system to calculate the affinity (KD=kd/ka) for human EphA4 (Table 6).
Background: Surface plasmon resonance follows binding to a sensor surface in real time, without labels.

The target in test [2] is T1, human EphA4. The test can be described thus: Selectivity ELISA of humanized antibodies for human Eph receptor. As to conditions: coated protein 1 nM; reference set to 100%. The method, boiled down:
(§1)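 Capture ELISA: anti-6-His coat, 1% BlockAce block, Eph ECD-SEAP-His (1 nM final, Expi293F supernatant) 1 h RT, humanized Ab 1 h RT, HRP anti-IgG 1 h RT, TMB, H2SO4 stop, A450.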
On the technique in general: ELISA stands for enzyme-linked immunosorbent assay.

In the next test the target is T2, human EphA1 (Homo sapiens, UniProt P21709).
T2 construct: a protein of the extracellular region of each human Eph receptor fused with the SEAP protein and the His tag; made in house; host or cells: Expi293F cells (culture supernatant)
T2 sequence (P21709 26-547 limits assumed): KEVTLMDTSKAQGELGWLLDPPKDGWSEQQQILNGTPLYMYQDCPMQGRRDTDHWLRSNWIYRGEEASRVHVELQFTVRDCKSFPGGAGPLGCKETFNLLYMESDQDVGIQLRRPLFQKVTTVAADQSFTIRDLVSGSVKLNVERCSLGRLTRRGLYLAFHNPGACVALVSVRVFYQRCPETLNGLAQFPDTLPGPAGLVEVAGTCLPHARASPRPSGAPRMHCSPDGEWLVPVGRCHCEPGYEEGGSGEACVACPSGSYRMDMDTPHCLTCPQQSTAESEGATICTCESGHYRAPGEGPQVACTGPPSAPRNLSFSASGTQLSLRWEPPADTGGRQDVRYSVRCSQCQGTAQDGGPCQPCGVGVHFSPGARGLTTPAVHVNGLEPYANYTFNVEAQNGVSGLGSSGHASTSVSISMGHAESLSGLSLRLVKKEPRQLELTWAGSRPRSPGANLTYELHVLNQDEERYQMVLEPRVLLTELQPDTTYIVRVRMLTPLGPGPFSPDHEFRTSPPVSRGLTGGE
The description is as above. As to conditions: coated protein 1 nM. The method, boiled down: as §1

T1 sequence (P54764 20-547): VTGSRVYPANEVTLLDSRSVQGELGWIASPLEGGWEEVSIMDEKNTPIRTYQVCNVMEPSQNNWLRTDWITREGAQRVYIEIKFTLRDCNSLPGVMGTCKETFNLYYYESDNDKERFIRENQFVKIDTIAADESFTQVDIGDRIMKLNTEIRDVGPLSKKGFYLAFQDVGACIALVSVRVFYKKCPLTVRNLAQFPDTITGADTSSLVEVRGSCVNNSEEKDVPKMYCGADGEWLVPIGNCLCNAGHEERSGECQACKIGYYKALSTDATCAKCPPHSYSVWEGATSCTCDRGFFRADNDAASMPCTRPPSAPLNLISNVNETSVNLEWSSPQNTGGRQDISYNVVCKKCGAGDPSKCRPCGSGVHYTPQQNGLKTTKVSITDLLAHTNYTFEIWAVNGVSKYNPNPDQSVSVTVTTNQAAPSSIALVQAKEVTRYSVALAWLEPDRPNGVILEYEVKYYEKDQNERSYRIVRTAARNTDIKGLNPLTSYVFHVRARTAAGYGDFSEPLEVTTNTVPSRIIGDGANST

B1: 94 (antibody, V domains shown)
VL: EIVMTQSPATLSVSPGERATLSCRASENIYRNLAWYQQKPGQSPRLLIYAATNLADGIPARFSGSGSGTEYTLTISSLQSEDFAVYYCQHFWGTPWTFGQGTKVEIK
VH: QVQLVQSGSELKKPGASVKVSCKASGYTFTDYSMHWVRQAPGQGLKWMGWINTETGEPTYAQGFTGRFVFSLDTSVSTAYLQISSLKAEDTAVYYCARIPLYYYGSRYWYFDVWGQGTTVTVSS
modifications: constant regions without entry; synthetic humanized antibody light chain variable region sequence; synthetic humanized antibody heavy chain variable region sequence
For B1, in the test with human EphA4 [1], the ka is 260000 M⁻¹ s⁻¹; the kd amounted to 0.00024 s⁻¹; the affinity, expressed as Kd, was 0.95 nM. Further, in the test with human EphA4 [2], the “hEphA4-SEAP-: absorbance at 450 nm, percentage with respect to hEphA4-SEAP-His as 100%” value was found to be 100%. Moreover, in the test with human EphA1, the “hEphA1-SEAP-: absorbance at 450 nm, percentage with respect to hEphA4-SEAP-His as 100%” value was determined as 6.5%.

B2: 95 (antibody, V domains shown)
VL: EIVMTQSPATLSVSPGERATLSCRASENIYRNLAWYQQKPGQSPRLLIYAATNLADGIPARFSGSGSGTEYTLTISSLQSEDFAVYYCQHFWGTPWTFGQGTKVEIK
VH: QVQLVQSGSELKKPGASVKVSCKASGYTFTDYSMHWVRQAPGQGLEWMGWINTETGEPTYADDFKGRFVFSLDTSVSTAYLQISSLKAEDTAVYYCARIPLYYYGSRYWYFDVWGQGTTVTVSS
modifications: constant regions without entry; synthetic humanized antibody light chain variable region sequence; synthetic humanized antibody heavy chain variable region sequence
With B2, in the test with human EphA4 [1], the ka stood at 300000 M⁻¹ s⁻¹, the kd was 0.00031 s⁻¹ and the Kd (usually the equilibrium constant for the complex coming apart) was 1 nM. Further, the “hEphA4-SEAP-: absorbance at 450 nm, percentage with respect to hEphA4-SEAP-His as 100%” value with human EphA4 [2] is 100%. In addition, the “hEphA1-SEAP-: absorbance at 450 nm, percentage with respect to hEphA4-SEAP-His as 100%” value with human EphA1 is 4.5%.

B3: 140 (antibody, V domains shown)
VH: QVQLVQSGSELKKPGASVKVSCKASGYTFTDYSMHWVRQAPGQGLKWMGWINTETGEPTYAQGFTGRFVFSLDTSVSTAYLQISSLKAEDTAVYYCARIPLYYYGSRYWYFDVWGQGTTVTVSS
VL: DIQMTQSPSSLSASVGDRVTITCRASENIYRNLAWYQQKPGKAPKLLVYAATNLADGVPSRFSGSGSGTDYTLTISSLQPEDFATYYCQHFWGTPWTFGQGTKVEIK
modifications: synthetic humanized antibody heavy chain variable region sequence; synthetic humanized antibody light chain variable region sequence
On to B3, for which, in the test with human EphA4 [1], the ka was 320000 M⁻¹ s⁻¹, the kd worked out at 0.00043 s⁻¹ and the dissociation constant (Kd) was determined as 1.4 nM. The “hEphA4-SEAP-: absorbance at 450 nm, percentage with respect to hEphA4-SEAP-His as 100%” value in the test with human EphA4 [2] is reported as 100%. For the same molecule, the “hEphA1-SEAP-: absorbance at 450 nm, percentage with respect to hEphA4-SEAP-His as 100%” value with human EphA1 is recorded as 5.5%.

B4: 73 (antibody, V domains shown)
VH: QIQLVQSGSELKKPGASVKVSCKASGYTFTDYSMHWVRQAPGQGLKWMGWINTETGEPTYADDFKGRFVFSLDTSVSTAYLQISSLKAEDTAVYYCARIPLYYYGSRYWYFDVWGQGTTVTVSS
VL: EIVMTQSPATLSVSPGERATLSCRASENIYRNLAWYQQKPGQSPRLLIYAATNLADGIPARFSGSGSGTEYTLTISSLQSEDFAVYYCQHFWGTPWTFGQGTKVEIK
modifications: synthetic humanized antibody heavy chain variable region sequence; synthetic humanized antibody light chain variable region sequence
With B4, in the test with human EphA4 [1], the ka amounted to 290000 M⁻¹ s⁻¹, the kd amounted to 0.00027 s⁻¹ and the Kd is 0.93 nM. Further, in the test with human EphA4 [2], the “hEphA4-SEAP-: absorbance at 450 nm, percentage with respect to hEphA4-SEAP-His as 100%” value was found to be 100%. Moreover, the “hEphA1-SEAP-: absorbance at 450 nm, percentage with respect to hEphA4-SEAP-His as 100%” value in the test with human EphA1 is given as 6.0%.

B5: 71 (antibody, V domains shown)
VH: QIQLVQSGSELKKPGASVKVSCKASGYTFTDYSMHWVRQAPGQGLKWMGWINTETGEPTYAQGFTGRFVFSLDTSVSTAYLQISSLKAEDTAVYYCARIPLYYYGSRYWYFDVWGQGTTVTVSS
VL: EIVMTQSPATLSVSPGERATLSCRASENIYRNLAWYQQKPGQSPRLLIYAATNLADGIPARFSGSGSGTEYTLTISSLQSEDFAVYYCQHFWGTPWTFGQGTKVEIK
modifications: synthetic humanized antibody heavy chain variable region sequence; synthetic humanized antibody light chain variable region sequence
Turning to B5, in the test with human EphA4 [1], the ka was 280000 M⁻¹ s⁻¹, the kd came out at 0.00023 s⁻¹ and the dissociation constant Kd came out at 0.82 nM. Moreover, the “hEphA4-SEAP-: absorbance at 450 nm, percentage with respect to hEphA4-SEAP-His as 100%” value with human EphA4 [2] is listed as 100%. The “hEphA1-SEAP-: absorbance at 450 nm, percentage with respect to hEphA4-SEAP-His as 100%” value with human EphA1 is listed as 5.6%.

B6: 139 (antibody)
VH: QVQLVQSGSELKKPGASVKVSCKASGYTFTDYSMHWVRQAPGQGLEWMGWINTETGEPTYAQGFTGRFVFSLDTSVSTAYLQISSLKAEDTAVYYCARIPLYYYGSRYWYFDVWGQGTTVTVSS
VL: DIQMTQSPSSLSASVGDRVTITCRASENIYRNLAWYQQKPGKAPKLLVYAATNLADGVPSRFSGSGSGTDYTLTISSLQPEDFATYYCQHFWGTPWTFGQGTKVEIK
chain: ASTKGPSVFPLAPSSRSTSESTAALGCLVKDYFPEPVTVSWNSGALTSGVHTFPAVLQSSGLYSLSSVVTVPSSNFGTQTYTCNVDHKPSNTKVDKTVERKSCVECPPCPAPPAAAPSVFLFPPKPKDTLMISRTPEVTCVVVDVSHEDPEVQFNWYVDGVEVHNAKTKPREEQFNSTFRVVSVLTVVHQDWLNGKEYKCKVSNKGLPAPIEKTISKTKGQPREPQVYTLPPSREEMTKNQVSLTCLVKGFYPSDIAVEWESNGQPENNYKTTPPMLDSDGSFFLYSKLTVDKSRWQQGNVFSCSVMHEALHNHYTQKSLSLSPG
modifications: synthetic humanized antibody heavy chain variable region sequence; synthetic humanized antibody light chain variable region sequence; synthetic antibody constant region sequence
In the test with human EphA4 [1], B6 had a ka of 370000 M⁻¹ s⁻¹, a kd of 0.00053 s⁻¹ and a Kd of 1.4 nM. The “hEphA4-SEAP-: absorbance at 450 nm, percentage with respect to hEphA4-SEAP-His as 100%” value in the test with human EphA4 [2] is listed as 100%. The “hEphA1-SEAP-: absorbance at 450 nm, percentage with respect to hEphA4-SEAP-His as 100%” value in the test with human EphA1 was determined as 5.7%.

B7: 96 (antibody, V domains shown)
VL: EIVMTQSPATLSVSPGERATLSCRASENIYRNLAWYQQKPGQSPRLLIYAATNLADGIPARFSGSGSGTEYTLTISSLQSEDFAVYYCQHFWGTPWTFGQGTKVEIK
VH: QVQLVQSGSELKKPGASVKVSCKASGYTFTDYSMHWVRQAPGQGLKWMGWINTETGEPTYADDFKGRFVFSLDTSVSTAYLQISSLKAEDTAVYYCARIPLYYYGSRYWYFDVWGQGTTVTVSS
modifications: constant regions without entry; synthetic humanized antibody light chain variable region sequence; synthetic humanized antibody heavy chain variable region sequence
Consider B7, for which, in the test with human EphA4 [1], the ka came to 270000 M⁻¹ s⁻¹, the kd stood at 0.00031 s⁻¹ and the Kd came to 1.1 nM. Besides, the “hEphA4-SEAP-: absorbance at 450 nm, percentage with respect to hEphA4-SEAP-His as 100%” value with human EphA4 [2] amounted to 100%. In addition, in the test with human EphA1, the “hEphA1-SEAP-: absorbance at 450 nm, percentage with respect to hEphA4-SEAP-His as 100%” value is 5.6%.
